From US20210009657A1 (THEACHON, published 2021)

Columns and labels:
[1] = target: T1, human FGF2 (human, UniProt P09038 143-288); experiment: fixed FGF2 incubated with increasing decoy, unbound FGF2 by ELISA
T1 construct: also called hFGF2; Fibroblast Growth Factor 2
Experimental: Fixed amounts of human FGF2, or human FGF9 (R&D Systems) were incubated for 2 h at 37° C. with increasing doses of each recombinant protein (0 to 250 ng/ml) in PBS 1% BSA. Specific commercial ELISA kits (R&D Systems; Clinisciences) were used to quantify remaining unbound FGFs. 1000 pg/ml or 1200 pg/ml were used for FGF2 and FGF9 respectively based on the sensitivity of the corresponding ELISA kits.

[2] = target: T2, Aggrecan (R&D systems #1220-PG-025) (UniProt P16112 20-675); experiment: ELISA, aggrecan coated on plate, detection with anti-FGFR3 antibody
T2 construct: Coated on the ELISA plate at 10 ug/mL
T2 sequence (P16112 20-675 limits assumed): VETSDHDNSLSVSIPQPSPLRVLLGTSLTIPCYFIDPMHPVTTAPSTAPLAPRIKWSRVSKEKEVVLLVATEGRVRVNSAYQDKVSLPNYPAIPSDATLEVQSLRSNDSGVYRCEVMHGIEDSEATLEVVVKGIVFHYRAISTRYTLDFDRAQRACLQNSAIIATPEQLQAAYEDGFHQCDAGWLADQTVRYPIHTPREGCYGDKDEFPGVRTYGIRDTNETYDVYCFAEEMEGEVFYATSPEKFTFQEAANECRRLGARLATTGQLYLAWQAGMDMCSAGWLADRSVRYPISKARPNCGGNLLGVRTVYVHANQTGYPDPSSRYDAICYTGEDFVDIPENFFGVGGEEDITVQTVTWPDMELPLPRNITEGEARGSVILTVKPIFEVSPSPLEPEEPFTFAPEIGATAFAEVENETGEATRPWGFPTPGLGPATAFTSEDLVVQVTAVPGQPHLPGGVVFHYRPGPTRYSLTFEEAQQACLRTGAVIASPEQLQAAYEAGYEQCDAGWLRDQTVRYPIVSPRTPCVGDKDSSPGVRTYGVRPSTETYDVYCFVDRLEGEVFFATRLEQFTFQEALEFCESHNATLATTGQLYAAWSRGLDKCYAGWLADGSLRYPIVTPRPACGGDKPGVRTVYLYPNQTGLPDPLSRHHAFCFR
Experimental: ELISA plate were coated with 10 μg/mL of Aggrecan (R&D systems #1220-PG-025) in a final volume of 50μI per well and incubated overnight at room temperature. Plate were blocked with 300μI of PBS 1% BSA per well during 1 h at room temperature. Different amount of protein (0 to 100 µl ) were incubated for 1 h at room temperature. Specific detection antibody against FGFR3 from an R&D system ELISA kit (#DYC766E) was used to detect recombinant protein fixed to aggrecan as recommended by the manufacturer.

T1 sequence (P09038 143-288 limits assumed): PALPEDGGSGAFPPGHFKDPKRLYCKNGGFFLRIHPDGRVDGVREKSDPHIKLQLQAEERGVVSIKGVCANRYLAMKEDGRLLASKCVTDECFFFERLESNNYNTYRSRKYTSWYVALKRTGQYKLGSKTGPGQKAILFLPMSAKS

B1: FLAG-sFGFR3_Del4-LK1-LK2 (other)
chain: DYKDDDDKLVDQIPAMGAPACALALCVAVAIVAGASSESLGTEQRVVGRAAEVPGPEPGQQEQLVFGSGDAVELSCPPPGGGPMGPTVWVKDGTGLVPSERVLVGPQRLQVLNASHEDSGAYSCRQRLTQRVLCHFSVRVTDAPSSGDDEDGEDEAEDTGVDTGAPYWTRPERMDKKLLAVPAANTVRFRCPAAGNPTPSISWLKNGREFRGEHRIGGIKLRHQQWSLVMESVVPSDRGNYTCVVENKFGSIRQTYTLDVLERSPHRPILQAGLPANQTAVLGSDVEFHCKVYSDAQPHIQWLKHVEVNGSKVGPDGTPYVTVLKVSLESNASMSSNTSGSGSGSGSGSGSGSVVFPYFPRLGRYNLNFHEAQQACLDQDAVIASFDQLYDAWRGGLDWCNAGWLSDGSVQYPITKPREPCGGQNTVPGVRNYGFWDKDKSRYDVFCFTSNFNGRFYYLIHPTKLTYDEAVQACLNDGAQIAKVGQIFAAWKILGYDRCDAGWLADGSVRYPISRPRRRCSPTEAAVRFVGFPDKKHKLYGVYCFRAYN
notes: Fusion of a soluble FGFR3 fragment with the LK1 and LK2 link domains of human HPLN1; Made in HEK 293 cells; also called FP; fusion protein
- binding result [1]: binds

B2: FLAG-sFGFR3_Del4 (receptor)
chain: DYKDDDDKMGAPACALALCVAVAIVAGASSESLGTEQRVVGRAAEVPGPEPGQQEQLVFGSGDAVELSCPPPGGGPMGPTVWVKDGTGLVPSERVLVGPQRLQVLNASHEDSGAYSCRQRLTQRVLCHFSVRVTDAPSSGDDEDGEDEAEDTGVDTGAPYWTRPERMDKKLLAVPAANTVRFRCPAAGNPTPSISWLKNGREFRGEHRIGGIKLRHQQWSLVMESVVPSDRGNYTCVVENKFGSIRQTYTLDVLERSPHRPILQAGLPANQTAVLGSDVEFHCKVYSDAQPHIQWLKHVEVNGSKVGPDGTPYVTVLKVSLESNASMSSNT
notes: Obtained by site directed mutagenesis of sFGFR3-pFLAG-CMV3 and made in HEK 293 cells; also called Del4 variant
- binding result [2]: no binding
